The values below are quoted from earlier work in paper PMC5158201.

Usually Kd stands for the constant that tells how readily two partners part at equilibrium.

The data set concerns the target decoy IL-1 receptor (IL-1RII) (Homo sapiens) (UniProt P27930).
Chain of UniProt P27930 (P27930 14-398): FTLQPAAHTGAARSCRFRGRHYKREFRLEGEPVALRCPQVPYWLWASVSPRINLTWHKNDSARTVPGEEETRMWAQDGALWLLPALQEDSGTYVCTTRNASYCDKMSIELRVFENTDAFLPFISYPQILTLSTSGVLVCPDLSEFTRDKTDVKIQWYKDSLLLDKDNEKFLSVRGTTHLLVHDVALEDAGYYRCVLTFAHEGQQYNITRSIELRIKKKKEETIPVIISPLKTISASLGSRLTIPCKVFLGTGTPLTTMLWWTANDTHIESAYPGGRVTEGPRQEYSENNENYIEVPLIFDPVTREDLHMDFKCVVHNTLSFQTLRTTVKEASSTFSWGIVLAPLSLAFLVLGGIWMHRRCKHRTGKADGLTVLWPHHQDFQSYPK

In the case of IL-1α (from UniProt P01583), the Kd was 0.03 nM.
